In patent publication US20240383984A1 (Genentech, published 2024):

T1: human FcRH5 (full-length, on cells) (human, UniProt Q96RD9 16-977)
T1 construct: Transfected SVT2/293 cells or endogenous expression (MOLP-2, primary cells); also called SVT2-FcRH5; SVT2-huFcRH5
T1 sequence: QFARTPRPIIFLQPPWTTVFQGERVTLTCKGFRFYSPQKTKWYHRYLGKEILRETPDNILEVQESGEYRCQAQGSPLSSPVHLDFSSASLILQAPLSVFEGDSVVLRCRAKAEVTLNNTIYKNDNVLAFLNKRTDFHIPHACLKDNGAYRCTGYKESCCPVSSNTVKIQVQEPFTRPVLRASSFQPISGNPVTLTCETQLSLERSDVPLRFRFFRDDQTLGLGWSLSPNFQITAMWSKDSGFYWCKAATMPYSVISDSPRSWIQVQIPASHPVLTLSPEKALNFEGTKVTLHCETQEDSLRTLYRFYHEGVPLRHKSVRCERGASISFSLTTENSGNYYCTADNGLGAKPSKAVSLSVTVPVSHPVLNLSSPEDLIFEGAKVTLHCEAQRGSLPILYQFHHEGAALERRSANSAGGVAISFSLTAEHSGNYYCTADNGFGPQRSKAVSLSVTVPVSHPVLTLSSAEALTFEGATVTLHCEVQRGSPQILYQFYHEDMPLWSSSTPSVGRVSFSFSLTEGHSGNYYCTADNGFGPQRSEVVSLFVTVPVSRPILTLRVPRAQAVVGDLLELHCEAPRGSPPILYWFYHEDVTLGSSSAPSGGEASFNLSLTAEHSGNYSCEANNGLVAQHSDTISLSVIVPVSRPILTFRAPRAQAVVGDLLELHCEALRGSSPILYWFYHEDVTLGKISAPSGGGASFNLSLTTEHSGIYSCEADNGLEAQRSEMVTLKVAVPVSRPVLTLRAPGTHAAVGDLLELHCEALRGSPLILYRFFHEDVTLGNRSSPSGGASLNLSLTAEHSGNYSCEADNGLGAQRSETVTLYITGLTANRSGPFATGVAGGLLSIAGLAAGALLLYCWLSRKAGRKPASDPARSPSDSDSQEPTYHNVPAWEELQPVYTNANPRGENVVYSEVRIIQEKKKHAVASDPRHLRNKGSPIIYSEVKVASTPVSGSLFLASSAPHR

T2: human FcRH2 (full-length, on SVT2 cells) (human, UniProt Q96LA5 20-508)
T2 construct: whole, on cells; also called SVT2-FcRH2
T2 sequence (looked up): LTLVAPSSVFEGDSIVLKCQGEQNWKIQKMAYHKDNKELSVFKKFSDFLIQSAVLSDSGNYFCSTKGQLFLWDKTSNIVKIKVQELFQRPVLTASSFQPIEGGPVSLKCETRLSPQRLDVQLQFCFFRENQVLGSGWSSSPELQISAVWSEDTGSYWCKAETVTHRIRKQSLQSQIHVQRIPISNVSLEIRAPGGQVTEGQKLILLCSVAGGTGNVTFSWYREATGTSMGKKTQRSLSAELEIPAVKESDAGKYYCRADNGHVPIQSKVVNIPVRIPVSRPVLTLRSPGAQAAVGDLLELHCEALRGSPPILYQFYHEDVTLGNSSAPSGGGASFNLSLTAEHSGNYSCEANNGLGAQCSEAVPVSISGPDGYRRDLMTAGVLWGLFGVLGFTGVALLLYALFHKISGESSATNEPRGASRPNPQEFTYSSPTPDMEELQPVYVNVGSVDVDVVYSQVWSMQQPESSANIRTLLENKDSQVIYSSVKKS

T3: human FcRH5 protein fragment (soluble) (human, UniProt Q96RD9 16-851)
T3 construct: whole entry named; also called soluble human FcRH5; Human FcRH5 (BIACORE analyte)
T3 sequence: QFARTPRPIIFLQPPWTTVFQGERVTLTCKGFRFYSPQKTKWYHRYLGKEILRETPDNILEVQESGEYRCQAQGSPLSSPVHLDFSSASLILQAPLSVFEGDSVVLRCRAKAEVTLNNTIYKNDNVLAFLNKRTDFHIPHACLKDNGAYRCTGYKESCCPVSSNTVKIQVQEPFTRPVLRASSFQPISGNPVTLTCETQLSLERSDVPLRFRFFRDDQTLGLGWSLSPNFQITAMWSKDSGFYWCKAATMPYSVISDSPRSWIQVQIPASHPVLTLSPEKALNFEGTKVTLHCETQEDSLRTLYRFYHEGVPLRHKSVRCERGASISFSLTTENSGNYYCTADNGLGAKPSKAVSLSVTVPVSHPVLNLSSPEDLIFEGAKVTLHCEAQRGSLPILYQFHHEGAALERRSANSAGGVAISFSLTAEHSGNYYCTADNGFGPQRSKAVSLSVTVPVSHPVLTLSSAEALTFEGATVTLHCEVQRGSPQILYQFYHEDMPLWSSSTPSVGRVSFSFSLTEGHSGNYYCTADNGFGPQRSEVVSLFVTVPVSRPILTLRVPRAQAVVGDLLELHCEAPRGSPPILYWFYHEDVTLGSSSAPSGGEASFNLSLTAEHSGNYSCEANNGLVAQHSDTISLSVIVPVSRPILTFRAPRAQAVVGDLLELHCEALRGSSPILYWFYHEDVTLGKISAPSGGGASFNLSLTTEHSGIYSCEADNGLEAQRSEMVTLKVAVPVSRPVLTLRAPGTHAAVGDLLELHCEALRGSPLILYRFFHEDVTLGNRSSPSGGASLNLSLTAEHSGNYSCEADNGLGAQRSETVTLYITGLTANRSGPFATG


How the values were obtained:
[1] = biological target: T1, human FcRH5 (full-length, on cells); test: FACS, SVT2 cells
[2] = biological target: T2, human FcRH2 (full-length, on SVT2 cells); test: FACS, SVT2 cells
[3] = biological target: T3, human FcRH5 protein fragment (soluble); test: SPR, hIgG capture, 1:1 model
Method: Briefly, a human IgG capture surface was generated on a Series S CM5 chip using amine coupling and the human IgG capture kit (GE Life Sciences, Piscataway, NJ). Test antibodies were then captured on flow cells 2, 3, or 4, with flow cell 1 used as a reference. An FcRH5 protein fragment was used as the analyte, with a flow rate of […]. Between injections the capture surface was regenerated by a 30-second injection of 3M magnesium chloride or 10 mM glycine, pH 1.5. Interactions were assessed at 25° C. in 10 mM HEPES pH7.4, 150 mM NaCl, and 0.05% Tween 20 (HBSP). Reference data from the reference flow cell and from injection of buffer alone were subtracted prior to kinetic analysis. Kinetic information was calculated by fitting data to a 1:1 binding model. Reference subtraction and data fitting were performed using BIAevaluation software (GE Life Sciences, Piscataway, NJ).
Kinetic characterization experiments were carried out (see Table 8). In these experiments, binding of soluble FcRH5 protein fragment to purified antibodies in human TDB antibody format was analyzed at six different non-zero concentrations (a 1:3 dilution series, one concentration injected twice as a replicate). Flow rate was set at 40 μl/min and association and dissociation monitored for 600 s.

binding result [1] | binding result [2] | Kd [3] | koff [3] | kon [3] | Binder
binds | no binding | – | – | – | 17B1 (antibody, mouse IgG2a, V domains shown, mouse mAb, Campaign C; recombinant murine IgG2a for SPR) VH: QVQLQQSGPELVRPGVSVKISCKGSGYTFTHYAMHWVKQSHTKSLEWIGMISSSSGNTNFNQKFMDKATMTVDKSSTTAYLELARLTFGDSAIYYCARWSYYALFDYWGQGTTVTVSS VL: ENVLTQSPAIMSASPGEKVTMTCSADSSVDYIHWYQQKSNTSPKLWIYDTSKLASGVPGRFSGSGSGNSYSLTISSMEAEDFATYYCFQGSGYPLTFGSGTKLELK
binds | no binding | – | – | – | 15G8 (antibody, mouse IgG2a, V domains shown, mouse mAb, Campaign C; recombinant murine IgG2a for SPR; also called mAb 15G8) VH: EVQLQQSGPELVKPGASVKMSCKASGYTFTNYVIHWMKQKPGQGLEWIGYISPYNDYTKYNEKFEGKATLTSDKSSNTAYMELSSLTSEDSAVYYCARRDYYGSSDYWGQGTTLTVSS VL: QIVLTQSPAIMSASPGEKVTMTCSASSSVDYMHWYQQKSGTSPKKWIYDTSKLASGVPARFSGSGSGTSYSLTIGSMEAEDAATYYCQQWSSNPPTFGGGTKLEIK
– | – | 2.4 nM | 0.001 s⁻¹ | 500000 M⁻¹ s⁻¹ | hu1G7.v1.4/38E4.v1 TDB (bispecific antibody, V domains shown, knob-into-hole TDB; also called 1G7.v1.4 TDB; 1G7.v1.4 (TDB format)) VH 1: EVQLVESGPGLVKPSETLSLTCTVSGFSLTRFGVHWVRQPPGKGLEWLGVIWRGGSTDYNAAFMSRLTISKDNSKNQVSLKLSSVTAADTAVYYCSNHYYGSSDYALDNWGQGTLVTVSS VL 1: DIQMTQSPSSLSASVGDRVTITCKASQDVRNLVVWFQQKPGKAPKLLIYSGSYRYSGVPSRFSGSGSGTDFTLTISSLQPEDFATYYCQQHYSPPYTFGQGTKVEIK VH 2: EVQLVQSGAEVKKPGASVKVSCKASGFTFTSYYIHWVRQAPGQGLEWIGWIYPENDNTKYNEKFKDRVTITADTSTSTAYLELSSLRSEDTAVYYCARDGYSRYYFDYWGQGTLVTVSS VL 2: DIVMTQSPDSLAVSLGERATINCKSSQSLLNSRTRKNYLAWYQQKPGQSPKLLIYWTSTRKSGVPDRFSGSGSGTDFTLTISSLQAEDVAVYYCKQSFILRTFGQGTKVEIK
– | – | 2.4 nM | 0.001 s⁻¹ | 400000 M⁻¹ s⁻¹ | 1G7.v85/38E4.v1 TDB (bispecific antibody, V domains shown, knob-into-hole TDB; also called 1G7.v85 TDB; 1G7.v85 (TDB format)) VH 1: EVQLVESGPGLVKPSETLSLTCTVSGFSLTRFGVHWVRQPPGKGLEWLGVIWRGGSTDYNAAFVSRLTISKDNSKNQVSLKLSSVTAADTAVYYCSNHYYGSSDYALDNWGQGTLVTVSS VL 1: DIQMTQSPSSLSASVGDRVTITCKASQDVRNLVVWFQQKPGKAPKLLIYSGSYRYSGVPSRFSGSGSGTDFTLTISSLQPEDFATYYCQQHYSPPYTFGQGTKVEIK VH 2: EVQLVQSGAEVKKPGASVKVSCKASGFTFTSYYIHWVRQAPGQGLEWIGWIYPENDNTKYNEKFKDRVTITADTSTSTAYLELSSLRSEDTAVYYCARDGYSRYYFDYWGQGTLVTVSS VL 2: DIVMTQSPDSLAVSLGERATINCKSSQSLLNSRTRKNYLAWYQQKPGQSPKLLIYWTSTRKSGVPDRFSGSGSGTDFTLTISSLQAEDVAVYYCKQSFILRTFGQGTKVEIK
